Source: patent US20250320284A1 (AC IMMUNE, published 2025)
Residue numbers refer to the chain shown, from its start.

B1: ACI-8016-31F10C5-AB1 (antibody, V domains shown)
VH: QVQLQQSEPELARPGASVKLSCTASGYTFINYGVSWVRQRTGQGLEWIGRIYPRSGNTRFNEKFQGKATLTADTSSSTAYMELRSLTSEDSAVYFCTRFPYAFSGNSYWYFDVWGTGTTVTVSS
VL: DIVMTQSHKFMSTSIGDRVSITCKASQDVSAAVAWYQQKPGQSPKLLIYSSSFRYTGVPDRFTGSASGTDFTFTITTVQAEDLAVYYCQQHFDTPYTFGGGTKLEIK
notes: also called 936.31F10C5
B2: ACI-8016-2609F4A9-AB1 (antibody, V domains shown)
VH: QVQLQQSDAELVKPGASVKISCKVSGYALTDHSIHWMKQRPEQGLAWIGYMYPGDGSANYNDKFRGKATLTADISSSTAYMHLNSLTSEDSAVYFCTRPYSFGSSYDYFGYWGQGTTLTVSS
VL: DIQMNQSPSSLSASLGDTITITCHASQNINVWLNWYQQKPGNIPKLLIYKASKLHTGVSSSFSGSGSGTGFTLTISSLQPEDIGTYYCQQGQSYPYTFGGGTKLEIK
B3: ACI-8016-2622E12F11-AB1 (antibody, V domains shown)
VH: RVQLQQAGAELVKPGASVKVSCKASGNTFNNYWIYWVKQRPGQGLEWIGRIHPSDSGTNYNQKFEGKATLTVDKSSGTAYMQLSSLTAEDSAVYYCALLSLYAMDSWGHGTSVTVSS
VL: DIVLTQSPASLAVSLGQRATISCRASKSVSSFGYNYIHWYLQKPGQPPKLLIYLASDLESGVPARFSGSGSGTGFTLNIHPVEEEDAATYYCQHSREFPWTFGGGTKLEIK
B4: ACI-8016-2626B9D3-AB1 (antibody, V domains shown)
VH: QVQLQQPGTELVKPGASVKLSCRASGWTHWVKQRPGQGLEWIGNINLSNGRTNYNEKFRAMATLTVDKSSSTAYTQLSSLTSEDSAVYYCANSMVPHFFPMDYWGQGTSVTVSS
VL: NIVMTQYPKSMSLSIGERVTLRCKASENVGSYVSWYQQKPEQSPKLLIYGASNRYTGVPDRFTGSGSATDFILTITSVQAEDLADYHCGQSYNYPLTFGAGTKLELK
B5: ACI-8016-2629E8D1-AB1 (antibody, V domains shown)
VH: QVQLQQSDAELVKPGGSVKISCKVSGYTFTDHTIHWMKQRPEQGLEWIGNIYPGDGSTMYNEKFKGKATLTADKSSSTAYMHLNSLTSEDSAVYFCARPYYFGSASYYFGYWGQGTTLTVSS
VL: B2 VL with K53N, S59P, S61R, T69I, G84A, Y96L
notes: also called ACI-8016-2629E8D1-AB1_rmG2a_01
B6: ACI-8016-2504F3D9-AB1 (antibody, V domains shown)
VH: DVKLVESGEGLVKPGGSLKLSCAVSGFTFSNYAMSWVRQTPEKRLEWVAYISSGGDFIYYRDTVKGRFTISRDNARNTLYLQMSSLKSEDTAMYYCILQLRPEAWFAYWGQGTLVTVSA
VL: DIKMTQSPSSMYASLGERVTITCKASQDIKNYLSWFQQIPGKSPKTLIYRANRLVDGVPSRFSGSGSGQDYSLTISSLEYEDMGIYYCLQYYEFPYTFGGGTKLEIK

Assays:
PYD domain of human ASC [1] = biological target: T1, PYD domain of human ASC (human, UniProt Q9ULZ3 1-91, limits assumed); test: BLI binning on PYD, competitor 2610H7D3-AB1
T1 construct: biotinylated in BLI; His/MBP-tagged in the alanine ELISA; also called hPYD; human PYD

PYD domain of human ASC [2] = biological target: T1, PYD domain of human ASC; test: BLI binning on PYD, competitor 26A1G2-AB1
[3] = biological target: T2, human ASC (apoptosis associated speck-like protein containing a caspase-recruitment domain) (human, UniProt Q9ULZ3 1-195); test: ELISA, coated hASC;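 further: antibody binding to plate-coated recombinant human ASC, read as phosphatase substrate absorbance, EC50 from four-parameter variable-slope fit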
T2 construct: recombinant hASC in ELISA and SPR; endogenous ASC (cytoplasmic or specks) in Western blot and immunofluorescence; also called hASC; PYCARD

PYD domain of human ASC [4] = biological target: T1, PYD domain of human ASC; test: BLI binning on PYD, competitor 401H9B7-AB1
PYD domain of human ASC [5] = biological target: T1, PYD domain of human ASC; test: BLI binning on PYD, competitor 2626B9D3-AB1
PYD domain of human ASC [6] = biological target: T1, PYD domain of human ASC; test: BLI binning on PYD, competitor 31F10C5-AB1
mouse ASC [7] = biological target: T3, mouse ASC (mouse, UniProt Q9EPB4 1-193); test: cell-based or functional assay
T3 sequence: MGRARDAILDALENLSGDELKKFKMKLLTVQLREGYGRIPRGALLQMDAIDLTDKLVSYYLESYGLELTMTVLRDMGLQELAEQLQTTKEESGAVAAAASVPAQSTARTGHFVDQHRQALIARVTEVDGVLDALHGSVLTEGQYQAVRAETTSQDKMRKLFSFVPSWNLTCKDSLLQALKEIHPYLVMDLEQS

PYD domain of human ASC [8] = biological target: T1, PYD domain of human ASC; test: ELISA, coated hPYD;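 further: monoclonal antibody binding to plate-coated human ASC PYD measured by ELISA, with a phosphatase substrate absorbance read-out and EC50 from a variable slope curve fit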
PYD domain of human ASC [9] = biological target: T1, PYD domain of human ASC; test: BLI binning on PYD, competitor 416E6G4-AB1
mouse ASC [10] = biological target: T3, mouse ASC; test: SPR affinity mode, mAb captured;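 further: Single-cycle SPR kinetics with mAbs captured on goat anti-mouse antibody, double-referenced against blank flow cell and buffer cycle, fitted by a 1:1 kinetic model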
[11] = biological target: T2, human ASC (apoptosis associated …); test: SPR affinity mode, mAb captured;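 further: Single-cycle SPR kinetics with mAbs captured on goat anti-mouse antibody, double-referenced against blank flow cell and buffer cycle, fitted by a 1:1 kinetic model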
mouse ASC [12] = biological target: T3, mouse ASC; test: cell-based or functional assay; remark: listed apart in the source
[13] = biological target: T2, human ASC (apoptosis associated …); test: cell-based or functional assay
PYD domain of human ASC [14] = biological target: T1, PYD domain of human ASC; test: BLI binning on PYD, competitor 2617C3A8-AB1
mouse ASC [15] = biological target: T3, mouse ASC; test: ELISA, coated mASC
[16] = biological target: T2, human ASC (apoptosis associated …); test: cell-based or functional assay; remark: listed apart in the source
PYD domain of human ASC [17] = biological target: T1, PYD domain of human ASC; test: BLI binning on PYD, competitor 22D3A6-AB1
CARD domain of human ASC [18] = biological target: T4, CARD domain of human ASC (human, UniProt Q9ULZ3 107-195); test: ELISA, coated hCARD
T4 construct: biotinylated in BLI; also called hCARD; human CARD
T4 sequence: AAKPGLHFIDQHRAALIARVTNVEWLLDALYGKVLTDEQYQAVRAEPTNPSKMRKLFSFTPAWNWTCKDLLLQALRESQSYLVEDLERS

PYD domain of human ASC [19] = biological target: T1, PYD domain of human ASC; test: BLI binning on PYD, competitor 23E5F7-AB2
mouse ASC [20] = biological target: T3, mouse ASC; test: SPR affinity mode, steady-state fit, apparent KD; SPR affinity mode, mAb captured, mASC in solution; steady-state fit, apparent KD
CARD domain of human ASC [21] = biological target: T4, CARD domain of human ASC; test: BLI binning on CARD, competitor 2609F4A9-Ab1
CARD domain of human ASC [22] = biological target: T4, CARD domain of human ASC; test: BLI binning on CARD, competitor 18F4C12-Ab1
CARD domain of human ASC [23] = biological target: T4, CARD domain of human ASC; test: BLI binning on CARD, competitor 32B6C7-Ab1
CARD domain of human ASC [24] = biological target: T4, CARD domain of human ASC; test: BLI binning on CARD, competitor 2504F3D9-Ab1
CARD domain of human ASC [25] = biological target: T4, CARD domain of human ASC; test: BLI binning on CARD, competitor 2629E8D1-Ab1
CARD domain of human ASC [26] = biological target: T4, CARD domain of human ASC; test: BLI binning on CARD, competitor 2622E12F11-Ab1
mouse ASC [27] = biological target: T3, mouse ASC; test: ELISA, coated mASC; ELISA on mASC protein

T1 sequence (Q9ULZ3 1-91 limits assumed): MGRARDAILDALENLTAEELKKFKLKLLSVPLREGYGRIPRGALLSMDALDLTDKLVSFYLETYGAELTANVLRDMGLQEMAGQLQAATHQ

EC50 [3] [nM] | % IL-1β inhibition, mouse primary microglia, 420 nM mAb (mouse ASC [7]) [%] | Kd [11] [nM] | koff [11] [s⁻¹] | kon [11] [M⁻¹ s⁻¹] | Mouse ASC polymerization assay, IC50 (mouse ASC [12]) [nM] | Human ASC polymerization assay, IC50 [13] [nM] | IL-1β release, human monocytic cell line, IC50 [16] [nM] | Kd (mouse ASC [20]) [nM] | normalized binding response (CARD domain of human ASC [21]) [%] | normalized binding response (CARD domain of human ASC [22]) [%] | binding result (PYD domain of human ASC [8]) | normalized binding response (CARD domain of human ASC [23]) [%] | normalized binding response (CARD domain of human ASC [24]) [%] | normalized binding response (CARD domain of human ASC [25]) [%] | normalized binding response (CARD domain of human ASC [26]) [%] | EC50 (CARD domain of human ASC [18]) [nM] | EC50 (mouse ASC [27]) [nM] | further results | Binder
0.24 | 90.5 | 0.16 | 0.000199 | 1.23e+06 | 34.8 | 6.3 | 33 | – | – | – | – | – | – | – | – | – | – | normalized binding response (PYD domain of human ASC [1]): 2%; normalized binding response (PYD domain of human ASC [2]): 0%; normalized binding response (PYD domain of human ASC [4]): 79%; normalized binding response (PYD domain of human ASC [5]): 49%; normalized binding response (PYD domain of human ASC [6]): 1%; EC50 (PYD domain of human ASC [8]): 0.18 nM; normalized binding response (PYD domain of human ASC [9]): 4%; Kd (mouse ASC [10]): 0.36 nM; koff (mouse ASC [10]): 0.000314 s⁻¹; kon (mouse ASC [10]): 886000 M⁻¹ s⁻¹; normalized binding response (PYD domain of human ASC [14]): 3%; EC50 (mouse ASC [15]): 0.3 nM; normalized binding response (PYD domain of human ASC [17]): 3%; binding result (CARD domain of human ASC [18]): no binding; normalized binding response (PYD domain of human ASC [19]): 2% | B1
0.12 | 82.3 | 24.9 | 0.00783 | 297000 | – | 32.8 | 16.2 | 168 | 0 | 96 | no binding | 7 | 0 | 0 | 103 | 0.11 | 0.3 | – | B2
0.11 | 95.9 | 3.66 | 0.000786 | 235000 | – | 19.4 | 30.8 | 176 | 74 | 18 | no binding | 91 | -2 | 87 | 0 | 0.12 | 0.16 | – | B3
– | 52 | – | – | – | 27.3 | – | – | 34.4 | – | – | – | – | – | – | – | – | 0.38 | – | B4
0.11 | 88.8 | 1.38 | 0.000182 | 140000 | – | 14.1 | 14.9 | 134 | -2 | 95 | no binding | 3 | -2 | 0 | 102 | 0.12 | 0.22 | – | B5
0.19 | – | 8.3 | 0.000723 | 89300 | – | – | 16.7 | – | 17 | 76 | no binding | 21 | 0 | 20 | 19 | 0.13 | – | – | B6
